Results: the supplement of paper PMC5998384

Assays:
HeLa Kyoto [1] = assay: melting temperature (median over replicates), in situ; higher = more thermally stable
HeLa Kyoto [2] = assay: solubility in G1/S (NP-40 vs SDS abundance) (log2 ratio); higher = more soluble; conditions: cell cycle stage: G1/S
HeLa Kyoto [3] = assay: thermal stability score vs G1/S (z-score of summed log2 fold changes over temperatures); higher = more thermally stable than in G1/S
HeLa Kyoto [4] = assay: solubility change mitosis vs G1/S (difference of NP-40 vs SDS log2 ratios) (log2 ratio difference); higher = more soluble in mitosis
[5] = cell cycle stage: early G1 (4.5 h after nocodazole release)
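Throughout, for melting temperature (median over replicates), in situ: HeLa Kyoto cells synchronized by double thymidine or nocodazole block, proteins quantified by TMT10plex mass spectrometry, three independent biological replicates.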
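Throughout, for solubility change mitosis vs G1/S (difference of NP-40 vs SDS log2 ratios): synchronized HeLa Kyoto cells (double thymidine block for G1/S, nocodazole release for mitosis), protein amounts in NP-40 versus SDS lysates quantified by mass spectrometry, three biological replicates.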
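Throughout, for solubility in G1/S (NP-40 vs SDS abundance): HeLa Kyoto cells arrested at G1/S by double thymidine block, proteins quantified by TMT10plex mass spectrometry in mild NP-40 versus SDS extracts, three biological replicates.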
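Throughout, for thermal stability score vs G1/S (z-score of summed log2 fold changes over temperatures): synchronized HeLa Kyoto cells, proteins quantified by TMT10plex mass spectrometry, three biological replicates, mitosis taken 0.5 h after nocodazole release, G1/S directly after double thymidine block.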

| Sequence | melting temperature (HeLa Kyoto [1]; cell cycle stage: G1/S) [°C] | melting temperature (HeLa Kyoto [1]; cell cycle stage: mitosis) [°C] | solubility in G1/S (log2) (HeLa Kyoto [2]) | thermal stability score (HeLa Kyoto [3]; [5]) | thermal stability score (HeLa Kyoto [3]; cell cycle stage: mitosis) | solubility change mitosis (log2) (HeLa Kyoto [4]) |
| --- | --- | --- | --- | --- | --- | --- |
| MTCWLRGVTATFGRPAEWPGYLSHLCGRSAAMDLGPMRKSYRGDREAFEETHLTSLDPVKQFAAWFEEAVQCPDIGEANAMCLATCTRDGKPSARMLLLKGFGKDGFRFFTNFESRKGKELDSNPFASLVFYWEPLNRQVRVEGPVKKLPEEEAECYFHSRPKSSQIGAVVSHQSSVIPDREYLRKKNEELEQLYQDQEVPKPKSWGGYVLYPQVMEFWQGQTNRLHDRIVFRRGLPTGDSPLGPMTHRGEEDWLYERLAP [PNPO] | 53.5 | 54.3 | 0.682 | -1.68 | -1.82 | -0.0358 |
| MTDAAVSFAKDFLAGGVAAAISKTAVAPIERVKLLLQVQHASKQITADKQYKGIIDCVVRIPKEQGVLSFWRGNLANVIRYFPTQALNFAFKDKYKQIFLGGVDKRTQFWLYFAGNLASGGAAGATSLCFVYPLDFARTRLAADVGKAGAEREFRGLGDCLVKIYKSDGIKGLYQGFNVSVQGIIIYRAAYFGIYDTAKGMLPDPKNTHIVISWMIAQTVTAVAGLTSYPFDTVRRRMMMQSGRKGTDIMYTGTLDCWRKIARDEGGKAFFKGAWSNVLRGMGGAFVLVLYDEIKKYT [SLC25A5] | 56.9 | 55.9 | -0.308 | -2.25 | -3.52 | -0.12 |
| MTEADVNPKAYPLADAHLTKKLLDLVQQSCNYKQLRKGANEATKTLNRGISEFIVMAADAEPLEIILHLPLLCEDKNVPYVFVRSKQALGRACGVSRPVIACSVTIKEGSQLKQQIQSIQQSIERLLV [SNU13] | 54.6 | 53 | -0.625 | -3.84 | -7.97 | 1.04 |
| MTECFLPPTSSPSEHRRVEHGSGLTRTPSSEEISPTKFPGLYRTGEPSPPHDILHEPPDVVSDDEKDHGKKKGKFKKKEKRTEGYAAFQEDSSGDEAESPSKMKRSKGIHVFKKPSFSKKKEKDFKIKEKPKEEKHKEEKHKEEKHKEKKSKDLTAADVVKQWKEKKKKKKPIQEPEVPQIDVPNLKPIFGIPLADAVERTMMYDGIRLPAVFRECIDYVEKYGMKCEGIYRVSGIKSKVDELKAAYDREESTNLEDYEPNTVASLLKQYLRDLPENLLTKELMPRFEEACGRTTETEKVQEFQRLLKELPECNYLLISWLIVHMDHVIAKELETKMNIQNISIVLSPTVQISNRVLYVFFTHVQELFGNVVLKQVMKPLRWSNMATMPTLPETQAGIKEEIRRQEFLLNCLHRDLQGGIKDLSKEERLWEVQRILTALKRKLREAKRQECETKIAQEIASLSKEDVSKEEMNENEEVINILLAQENEILTEQEELLAMEQFLRRQIASEKEEIERLRAEIAEIQSRQQHGRSETEEYSSESESESEDEEELQIILEDLQRQNEELEIKNNHLNQAIHEEREAIIELRVQLRLLQMQRAKAEQQAQEDEEPEWRGGAVQPPRDGVLEPKAAKEQPKAGKEPAKPSPSRDRKETSI [RALBP1] | 47.8 | 50.4 | 0.0284 | 0.156 | 0.441 | 0.12 |
| MTERFDCHHCNESLFGKKYILREESPYCVVCFETLFANTCEECGKPIGCDCKDLSYKDRHWHEACFHCSQCRNSLVDKPFAAKEDQLLCTDCYSNEYSSKCQECKKTIMPGTRKMEYKGSSWHETCFICHRCQQPIGTKSFIPKDNQNFCVPCYEKQHAMQCVQCKKPITTGGVTYREQPWHKECFVCTACRKQLSGQRFTARDDFAYCLNCFCDLYAKKCAGCTNPISGLGGTKYISFEERQWHNDCFNCKKCSLSLVGRGFLTERDDILCPDCGKDI [FHL2] | 52 | 51.9 | -0.304 | -1.09 | -1.97 | -0.0906 |
| MTGNAGEWCLMESDPGVFTELIKGFGCRGAQVEEIWSLEPENFEKLKPVHGLIFLFKWQPGEEPAGSVVQDSRLDTIFFAKQVINNACATQAIVSVLLNCTHQDVHLGETLSEFKEFSQSFDAAMKGLALSNSDVIRQVHNSFARQQMFEFDTKTSAKEEDAFHFVSYVPVNGRLYELDGLREGPIDLGACNQDDWISAVRPVIEKRIQKYSEGEIRFNLMAIVSDRKMIYEQKIAELQRQLAEEEPMDTDQGNSMLSAIQSEVAKNQMLIEEEVQKLKRYKIENIRRKHNYLPFIMELLKTLAEHQQLIPLVEKAKEKQNAKKAQETK [UCHL5] | 48.7 | 48.9 | 0.533 | 1.19 | 2.51 | -0.0948 |
